T1: recombinant human DLL3 (human, UniProt Q9NYJ7 27-492)
T1 sequence: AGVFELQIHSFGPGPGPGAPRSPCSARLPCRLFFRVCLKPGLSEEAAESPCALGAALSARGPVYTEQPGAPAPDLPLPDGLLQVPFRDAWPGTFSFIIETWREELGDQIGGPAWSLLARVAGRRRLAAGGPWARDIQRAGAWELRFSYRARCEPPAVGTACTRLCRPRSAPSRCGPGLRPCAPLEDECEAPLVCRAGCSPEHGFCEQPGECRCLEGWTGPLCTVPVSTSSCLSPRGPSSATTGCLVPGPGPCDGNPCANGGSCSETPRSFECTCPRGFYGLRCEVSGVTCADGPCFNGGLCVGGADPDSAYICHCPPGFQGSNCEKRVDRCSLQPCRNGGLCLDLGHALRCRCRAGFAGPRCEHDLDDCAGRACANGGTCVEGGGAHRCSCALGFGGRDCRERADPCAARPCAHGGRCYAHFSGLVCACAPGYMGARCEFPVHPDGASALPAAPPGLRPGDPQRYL

T2: Cynomolgus DLL3 ECD with Myc-tag on N-terminus and His-tag on C-terminus (cynomolgus)
T2 construct: also called Myc-cynoDLL3-His; Cyno DLL3
T2 chain: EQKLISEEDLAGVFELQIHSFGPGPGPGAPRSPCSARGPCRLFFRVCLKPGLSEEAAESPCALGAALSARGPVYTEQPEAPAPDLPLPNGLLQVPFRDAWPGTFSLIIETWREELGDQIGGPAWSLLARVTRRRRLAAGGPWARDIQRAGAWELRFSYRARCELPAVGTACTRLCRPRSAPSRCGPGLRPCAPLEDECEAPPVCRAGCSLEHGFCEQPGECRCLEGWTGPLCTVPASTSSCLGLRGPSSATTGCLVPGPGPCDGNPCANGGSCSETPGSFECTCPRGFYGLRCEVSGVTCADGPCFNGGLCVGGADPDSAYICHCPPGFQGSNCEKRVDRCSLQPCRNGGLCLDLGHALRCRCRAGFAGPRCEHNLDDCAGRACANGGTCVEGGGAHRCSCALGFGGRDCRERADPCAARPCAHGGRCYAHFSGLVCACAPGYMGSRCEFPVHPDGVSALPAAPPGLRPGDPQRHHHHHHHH


What was measured:
[1] = target: T1, recombinant human DLL3; assay: SPR Biacore 8K, 37 C, pH 7.4; bispecific captured on anti-human Fc, DLL3 as analyte, 1:1 model
Protocol: (§1) Binding affinity of anti-DLL3 arm in the anti-DLL3/CD3 antibodies to human or cynomolgus DLL3 at pH 7.4 were assessed at 37 degrees C. using Biacore 8K instrument (GE Healthcare). Anti-human Fc (GE Healthcare) was immobilized onto all flow cells of a CM4 sensor chip using amine coupling kit (GE Healthcare). The bispecific antibodies were captured onto the anti-Fc sensor surfaces, and then recombinant human or cynomolgus DLL3 was injected over the flow cell. All antibodies and analytes were prepared in ACES pH 7.4 containing 20 mM ACES, 150 mM NaCl, 0.05% Tween 20, 0.005% NaN₃. Sensor surface was regenerated each cycle with 3M MgCl₂.

[2] = target: T2, Cynomolgus DLL3 ECD with Myc-tag on …; assay: as above
Protocol: as §1

[3] = target: recombinant human CD3eg protein (CD3 epsilon-gamma, heterodimer of CD3 epsilon and CD3 gamma) (human, UniProt P07766 23-126; P09693 23-116); assay: SPR Biacore 8K, 37 C, pH 7.4; bispecific captured on anti-human Fc, human CD3eg as analyte, 1:1 model
recombinant human CD3eg protein (CD3 epsilon-gamma, heterodimer of CD3 epsilon and CD3 gamma), sequence (P07766 23-126 limits assumed, chain 1 of 2): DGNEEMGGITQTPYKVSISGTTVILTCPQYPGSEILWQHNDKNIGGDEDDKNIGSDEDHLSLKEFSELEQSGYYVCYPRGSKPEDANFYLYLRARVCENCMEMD
recombinant human CD3eg protein (CD3 epsilon-gamma, heterodimer of CD3 epsilon and CD3 gamma), sequence (P09693 23-116 limits assumed, chain 2 of 2): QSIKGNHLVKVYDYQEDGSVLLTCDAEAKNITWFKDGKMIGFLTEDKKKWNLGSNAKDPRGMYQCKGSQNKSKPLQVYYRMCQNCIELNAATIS
Protocol: as §1, with “of the anti-CD3” for “of anti-DLL3”, “arm of” for “arm in”, “anti-DLL3/CD3 bispecific” for “anti-DLL3/CD3”, “to CD3” for “to human or cynomolgus DLL3”, “7.4 was” for “7.4 were”, “human CD3eg proteins (CD3 epsilon-gamma, heterodimer of CD3 epsilon and CD3 gamma)” for “human or cynomolgus DLL3”

[4] = target: T1, recombinant human DLL3; assay: Octet binning on SA sensor; Antibody A (biotinylated, loaded first): DL312-SG1; then 20 nM human DLL3, then 80 nM Antibody B
Protocol: (§2) Octet (registered trademark) RED384 (Fortebio) was used to perform competitive binding assays by epitope binning for a panel of antibodies. A biotinylated antibody (DL301-SG1, DL306-SG1, DL309-SG1, DL312-SG1, D30316AE02-SG1, and D30841AE05-SG1) at 40 nM was first loaded to a streptavidin (SA) biosensor. Next, the sensor is exposed to 20 nM of human DLL3, followed by exposure to 80 nM of second antibody. The second antibodies are DL301-SG1, DL306-SG1, DL309-SG1, DL312-SG1, D30316AE02-SG1, D30841AE05-SG1, DLL3-14-SG1, DLL3-22-SG1, DLL3-4-SG1 and DLL3-6-SG1. Raw data was processed using ForteBio's Data Analysis Software 7.0 and the antibody pairs were assessed for competitive binding. Additional binding by the second antibody indicates an unoccupied epitope (non-competitor), while no binding indicates epitope blocking (competitor).
(§3) The competition ratio of antibody B to antibody A was calculated using the following equation: Competition Ratio (Antibody B to Antibody A)=[Binding Response (Antibody B-Antigen)]/[Binding Response (Antigen-Antibody A)]

[5] = target: T1, recombinant human DLL3; assay: Octet binning on SA sensor; Antibody A (biotinylated, loaded first): D30316AE02-SG1; then 20 nM human DLL3, then 80 nM Antibody B
Protocol: as §2, §3

[6] = target: T1, recombinant human DLL3; assay: Octet binning on SA sensor; Antibody A (biotinylated, loaded first): D30841AE05-SG1; then 20 nM human DLL3, then 80 nM Antibody B
Protocol: as §2, §3

[7] = target: T1, recombinant human DLL3; assay: Octet binning on SA sensor; Antibody A (biotinylated, loaded first): DL301-SG1; then 20 nM human DLL3, then 80 nM Antibody B
Protocol: as §2, §3

[8] = target: T1, recombinant human DLL3; assay: Octet binning on SA sensor; Antibody A (biotinylated, loaded first): DL309-SG1; then 20 nM human DLL3, then 80 nM Antibody B
Protocol: as §2, §3

[9] = target: T1, recombinant human DLL3; assay: Octet binning on SA sensor; Antibody A (biotinylated, loaded first): DL306-SG1; then 20 nM human DLL3, then 80 nM Antibody B
Protocol: as §2, §3

Binder	Kd [1]	koff [1]	kon [1]	Kd [2]	koff [2]	kon [2]	Kd [3]	koff [3]	kon [3]	competition ratio (Antibody B to Antibody A) [4]	competition ratio (Antibody B to Antibody A) [5]	competition ratio (Antibody B to Antibody A) [6]	competition ratio (Antibody B to Antibody A) [7]	competition ratio (Antibody B to Antibody A) [8]	competition ratio (Antibody B to Antibody A) [9]
D30316AE03/TR01 (bispecific antibody, V domains shown, IgG-type anti-DLL3/CD3 bispecific made by Fab arm exchange) VH 1: EVQLVESGGGLVQPGGSLRLSCAASGFTFSNYGVSWVRQAPGQGLEWMGYIDIAFGRTYYASWVTGRITINPDTSKNQFSLQLNSVTPEDTAVYYCARVALVVAGVAYYGMDVWGQGTLVTVSS VL 1: DIVMTQSPDSLAVSLGERATINCQASQNIYSYLSWYQQKPGKAPKLLIYRTSTLASGVPDRFSGSGSGTDFTLKISRVEAEDVGVYYCQSYYYSSGSSYGAFAFGQGTKVEIK VH 2: QVQLVESGGGVVQPGGSLRLSCAASGFTFSNAWMHWVRQAPGKGLEWVAQIKDKSQNYATYVAESVKGRFTISRADSKNSIYLQMNSLKTEDTAVYYCRYVHYAAGYGVDIWGQGTTVTVSS VL 2: DIVMTQSPLSLPVTPGEPASISCRSSQPLVHSNRNTYLHWYQQKPGQAPRLLIYKVSNRFSGVPDRFSGSGSGTDFTLKISRVEAEDVGVYYCGQGTQVPYTFGQGTKLEIK	0.0261 nM	6.11e-05 s⁻¹	2.34e+06 M⁻¹ s⁻¹	0.0117 nM	2.72e-05 s⁻¹	2.32e+06 M⁻¹ s⁻¹	127 nM	0.0169 s⁻¹	134000 M⁻¹ s⁻¹						
DL309-SG1 (antibody, human IgG1, kappa, V domains shown, Variable regions of a previously reported anti-DLL3 antibody on SG1/SK1; Also used biotin-labelled as a first antibody) VH: QVQLQQSGGDLMKPGASVKISCKAAGYTFSNYYIEWVKQRPGHGLEWIGEILPGSGSTTYNEKFKGKASFTADTSSNTAYMQLSSLTSEDSAVYYCARWGAREPGFPYWGQGTLVTVSA VL: DIVMTQSQKFMSTSVGDRVSVTCKASQNVGTNVAWYQQKPGQSPKALIYSASYRYSGVPDRFTGSGSGTDFTLTISNVQSEDLAEYFCQQYNNYPLTFGAGTKLELKR										1.5	1.4	1.5	1.4	-0.1	1.4
DL301-SG1 (antibody, human IgG1, kappa, V domains shown, Variable regions of a previously reported anti-DLL3 antibody on SG1/SK1; Also used biotin-labelled as a first antibody) VH: QVQLQQSGADLVRPGTSVKVSCKASGYAFTNYLIEWIKQRPGQGLEWIGVMNPGSGGTHYSEKFRGKATLTADKSSSTAYMQLISLTSDDSAVYFCARSDYDYVTYAMDYWGQGTSVTVSS VL: DIKMTQSPSSMYASLGERVTITCKASQDINSYLIWFQQKPGKSPKTLIYRTNRLVDGVPSRFSGSGSGQDYSLTISSLEYGDMGIYYCLQYDEFPFTFGSGTKLEIKR										1.3	1.3	1.3	-0.1	1.2	1.3
DL306-SG1 (antibody, human IgG1, kappa, V domains shown, Variable regions of a previously reported anti-DLL3 antibody on SG1/SK1; Also used biotin-labelled as a first antibody) VH: EVQLQQSGPELVKPGASVKMSCRASGYTFTDYYMKWVKQSHGKSLEWIGDINPNNGDTFYNQKFKGKATLTIDKSSSTAYMQLNSLTSDDSAVYYCARDGNYAYFDYWGQGTTLTVSS VL: DIVLTQSPASLAVSLGQRATISCRASKSVSTSGYSYMHWYQQKPGQPPKLLIFLASNLESGVPARFSGSGSGTDFTLNIHPVEEEDAATYYCQHSRHLPWTFGGGTKLEIKR										1.2	1.5	0	1.1	0.9	0
DLL3-6-SG1 (antibody, human IgG1, kappa, V domains shown, Variable regions of a previously reported anti-DLL3 antibody on SG1/SK1; Used as a second antibody only) VH: QVQLQESGPGLVKPSETLSLTCTVSGASISSFYWSWIRQPPGKGLEWIGYIYYSGTTNYNPSLKSRVTISVDTSKNQFSLKLSSVTAADTAVYYCARIAVAGFFFDYWGQGTLVTVSS VL: EIVLTQSPGTLSLSPGERATLSCRASQSVNKNYLAWYQQKPGQAPRLLIYGASSRATGIPDRFSGSGSGTDFTLTISRLEPEDFAVYYCQQYDRSPLTFGGGTKVEIKR										1.3	1.3	1.3	1.2	1	1.3
DLL3-4-SG1 (antibody, human IgG1, kappa, V domains shown, Variable regions of a previously reported anti-DLL3 antibody on SG1/SK1; Used as a second antibody only) VH: QVQLQESGPGLVKPSETLSLTCTVSGGSISSYYWSWIRQPPGKGLEWIGYVYYSGTTNYNPSLKSRVTISVDTSKNQFSLKLSSVTAADTAVYYCASIAVTGFYFDYWGQGTLVTVSS VL: EIVLTQSPGTLSLSPGERVTLSCRASQRVNNNYLAWYQQRPGQAPRLLIYGASSRATGIPDRFSGSGSGTDFTLTISRLEPEDFAVYYCQQYDRSPLTFGGGTKLEIKR										1.3	1.3	1.3	1.2	1	1.3
DLL3-22-SG1 (antibody, human IgG1, kappa, V domains shown, Variable regions of a previously reported anti-DLL3 antibody on SG1/SK1; Used as a second antibody only) VH: QVQLQESGPGLVKPSETLSLTCTVSGDSISSYYWTWIRQPPGKGLEWIGYIYYSGTTNYNPSLKSRVTISVDTSKSQFSLKLSSVTAADTAVYYCASIAVRGFFFDYWGQGTLVTVSS VL: not shown										1.3	1.3	1.3	1.2	0.9	1.3

Source: patent US20240150465A1 (Chugai, published 2024)
